Legend:
[1] = target: human insulin receptor extracellular domain (HIR ECD) (human) (UniProt P06213); test: ELISA, HIR ECD plated, biotinylated anti-human IgG detection
[2] = target: human insulin receptor extracellular domain (HIR ECD) (human) (UniProt P06213); test: ELISA, HIR ECD plated; against the HIR Ab as reference

Row | Substance | EC50 [1] [nM] | reduction in receptor binding affinity [2] [%]
1 | GUSB-HIR Ab fusion protein (GUSB fused to the amino terminus of the HIR Ab heavy chain) (from UniProt P08236 23-633) (antibody) | 4.8 | 95
2 | HIR Ab-GUSB fusion protein (GUSB fused to the carboxyl terminus of the HIR Ab heavy chain) (from UniProt P08236 23-633) (antibody) | 0.81 | –

Reference: US20200308292A1
